Results from publication PMC2564605 (Journal of molecular biology, 2008).

Target: the molecule itself
Test: SDS-PAGE and Western blot

B1: His-tagged aquaporin-9 (natural protein, UniProt P56627 1-295, looked up)
chain: MPSEKDGAKKSLMQRLALKSRIAKETLSEFLGTFIMIVLGCSSIAQAVLSRERFGGIITINIGFASAVVMALYVTFGISGGHINPAVSFAMCAFGRMEWFKFPFYVGAQFLGAFVGAATVFGIYYDGLMAFAGGKLLVVGENATAFIFATYPAPFISTPGAFVDQVVSTMFLLLIVFAMFDSRNLGVPRGLEPVVIGLLIIVLSCSLGLNSGCAMNPARDLSPRLFTALAGWGFEVFTVGNNFWWIPVVGPMIGAFLGGLIYILFIQMHHSKLDPDMKAEPSENNLEKHELSVIM
modifications: unglycosylated (~32 kDa) and glycosylated (~35 kDa) forms
stoichiometry N: 2
